Results: publication PMC5951847, “Substrate sequence selectivity of APOBEC3A implicates intra-DNA interactions”

B1: Hairpin-AAA (structured_DNA)
DNA: GCCATCAAAAGATGGG
B2: Poly A-TTC (pH series, 4A-TTC-6A) (ssDNA)
DNA: AAAATTCAAAAAA

Tests used:
[1] = target: T1, A3A(E72A) (Homo sapiens, UniProt P31941 1-199, E72A); test: fluorescence anisotropy; pH 6.0; 50 mM MES pH 6.0, 100 mM NaCl, 0.5 mM TCEP, room temperature overnight, 10 nM TAMRA-oligo; competition with 300 nM A3A(E72A); pH series: acetate 4.0-5.0, MES 5.5-6.5, HEPES 7.0-8.0, Tris 8.5-9.0; settings: protein: recombinant; tags: His6-SUMO removed by Ulp1 (untagged); label: 5' TAMRA; hairpin
T1 sequence (P31941 whole entry E72A): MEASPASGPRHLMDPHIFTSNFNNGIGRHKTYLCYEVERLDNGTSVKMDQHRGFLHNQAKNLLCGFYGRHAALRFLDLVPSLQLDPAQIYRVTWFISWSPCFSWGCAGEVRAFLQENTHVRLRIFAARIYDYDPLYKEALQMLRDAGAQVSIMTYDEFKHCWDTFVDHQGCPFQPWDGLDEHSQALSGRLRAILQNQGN

[2] = target: T1, A3A(E72A); test: fluorescence anisotropy; pH 5.5; 50 mM MES pH 6.0, 100 mM NaCl, 0.5 mM TCEP, room temperature overnight, 10 nM TAMRA-oligo; competition with 300 nM A3A(E72A); pH series: acetate 4.0-5.0, MES 5.5-6.5, HEPES 7.0-8.0, Tris 8.5-9.0; settings: protein: recombinant; tags: His6-SUMO removed by Ulp1 (untagged); label: 5' TAMRA

Binder | Kd [1] [nM] | Kd [2] [nM]
B1 | 676 ± 399 | –
B2 | – | 68 ± 3
